The data set is described as follows: soluble on expression in E. coli; label from the status in PepcDB or PDB records.
As for “MKLDLDAFRIQPGKKPNLAKRPTRIDPVYRSKGEYHELLANHVAELSKLQNVLYADNRYAILLIFQAMDAAGKDSAIKHVMSGVNPQGCQVYSFKHPSATELEHDFLWRTNCVLPERGRIGIFNRSYYEEVLVVRVHPEILEMQNIPHNLAHNGKVWDHRYRSIVSHEQHLHCNGTRIVKFYLHLSKEEQRKRFLERIDDPNKNWKFSTADLEERKFWDQYMEAYESCLQETSTKDSPWFAVPADDKKNARLIVSRIVLDTLESLNLKYPEPSPERRKELLDIRKRLENPENGK”, the “soluble on expression in E. coli” value is “not soluble”.
The result for “MKLERILPFSKTLIKEHIKQDSIVIDATCGNGNDTLFLAQQVSNGHVFGFDIQDTAIQSTFEKVKAFNNVTLIQDGHENIKKHIDIQFKGQIDAAIFNLGYLPKGDKSIVTRPETTIKAINAIFDYLSVEGIIVLVIYHGHAEGQVERDALLDFLEHFDQEKAHILKYQFMNQVNHAPFICAIEKRLEHHHHHH” reads “not soluble”; that for “MKLIKTIDAVGQVLCHDITQIIPGEFKGRKFKKGHIVKEEDIPVLLSLGKDNLYVWEKSEGMVHENEGALFLKELTAGENLDFSEIKEGKIDFIAACDGLLKIDVDALFDLNCVGEIMMATLHNNFIVNKGLKVAGTRVIPLVIDEKKLEDAKKVVGNRKIVNVVPFKPKKVGIVTTGNEVFYSRIVDKFGPVIEEKVKGFGCEVIGQTICPDDKEIIKSAIKEFISQGAELICCTGGMSVDPDDVTPTAIKETGADLVTYGSPILPGAMFLLAYYGEVPIMGIPGCAMYHKTTVFDIVLSRVLIDEKLDKYDIARYGHGGLCMNCDVCTYPACNFAKI”, “soluble”.
Consider “MKLINTTNSHSQLVKSQLESTDATLVEVYSAGNTDVIFTQAPLHYEILISNKHRAIREPEIETIQEFFLKRKIDKASVDEANIKTLYSEKLIGISIPIK”, for which the “soluble on expression in E. coli” value was “not soluble”.
In the case of “MKLKDCVMIKKIFALPVIEQISPVLSRRKLDELDLIVVDHPQVKASFALQGAHLLSWKPAGEEEVLWLSNNTPFKNGVAIRGGVPVCWPWFGPAAQQGLPAHGFARNLPWTLKSHHEDADGVALTFELTQSEETKKFWPHDFTLLAHFRVGKTCEIDLESHGEFETTSALHTYFNVGDIAKVSVSGLGDRFIDKVNDAKENVLTDGIQTFPDRTDRVYLNPQDCSVINDEALNRIIAVGHQHHLNVVGWNPGPALSISMGDMPDDGYKTFVCVETAYASETQKVTKEKPAHLAQSIRVAKRLEHHHHHH”, the “soluble on expression in E. coli” value is reported as “not soluble”.
In the case of “MKLKIDLNCDLGEAFGNYTFGGDQHILPLITSANIACGYHAGDEDVMNETVQLAKKNNISIGAHPGLPDLKGFGRRKMDLTPNEIYNLVIYQLGALSGFCKINHVKMMHVKPHGALYQMGARNKEIAHAIAQAVFDFDSNLIFVGLANTLLISEAELVGLKVASEVFADRRYEDDGQLVSRKKTDATITNTDEAIQQALKMVLENKVVSKNGKIIDLKADTICVHGDGKHALEFVTQIRNELMKEGIDIQSLLEHHHHHH”, the “soluble on expression in E. coli” value is “soluble”.
For “MKLLILGNHTCGNRGDSAILRGLLDAINILNPHTEVDVMSRYPVSSSWLLNRPVMGDPLFLQMKQHNSAAGVVGRVKKVLRRRYQHQVLLSRVTDTGKLRNIAIAQGFTDFVRLLSGYDAIIQVGGSFFVDLYGVPQFEHALCTFMAKKPLFMIGHSVGPFQDEQFNQLANYVFGHCDALILRESVSLDLMKRSNITTAKVEHGVDTAWLVDHHTEDFTASYAVQHWLDVAAQQKTVAITLRELAPFDKRLGTTQQVYEKAFAGVVNRILDEGYQVIALSTCTGIDSYNKDDRMVALNLRQHISDPARYHVVMDELNDLEMGKILGACELTVGTRLHSAIISMNFATPAIAINYEHKSAGVMQQLGLPEMAIDIRHLLDGSLQAMVADTLGQLPALNARLSEAVSRERQTGMQMVQSVLERIGEVK”, the “soluble on expression in E. coli” value was “soluble”.
As for “MKLLQRGVALALLTTFTLASETALAYEQDKTYKITVLHTNDHHGHFWRNEYGEYGLAAQKTLVDGIRKEVAAEGGSVLLLSGGDINTGVPESDLQDAEPDFRGMNLVGYDAMAIGNHEFDNPLTVLRQQEKWAKFPLLSANIYQKSTGERLFKPWALFKRQDLKIAVIGLTTDDTAKIGNPEYFTDIEFRKPADEAKLVIQELQQTEKPDIIIAATHMGHYDNGEHGSNAPGDVEMARALPAGSLAMIVGGHSQDPVCMAAENKKQVDYVPGTPCKPDQQNGIWIVQAHEWGKYVGRADFEFRNGEMKMVNYQLIPVNLKKKVTWEDGKSERVLYTPEIAENQQMISLLSPFQNKGKAQLEVKIGETNGRLEGDRDKVRFVQTNMGRLILAAQMDRTGADFAVMSGGGIRDSIEAGDISYKNVLKVQPFGNVVVYADMTGKEVIDYLTAVAQMKPDSGAYPQFANVSFVAKDGKLNDLKIKGEPVDPAKTYRMATLNFNATGGDGYPRLDNKPGYVNTGFIDAEVLKAYIQKSSPLDVSVYEPKGEVSWQ”, the “soluble on expression in E. coli” value is reported as “soluble”.
With “MKLQQLKYALEVYQHNLNVSEAAEALFTSQPGISKQIKLLEEEIGIQIFIRSGKRVVSVSQPGKVVLDIAERILRDVQNIKNIGSEFTGQDSGSLTVATTHTQARYALPLIVADFVKRYPKVNLTIKQGSPAAIARMVTSGEADLAIVTERIDDHPELGKLPCYDWTHAVIVPNDHPLLECRNPLRIEDLARFPLITYEFAFNAGSSIARAFSKARLEQPDVALAAADTDVLKTYVRLGLGVGLMAKMAYNPDTDGDLQLVDAAHLFEPSPTWIALRSDTYLRGYAYDFIQAFAPHLTREKVDRILYTPISEDFSI”, the “soluble on expression in E. coli” value was “soluble”.
Consider “MKLSEIYNFLDQLSPFNIQESWDNSGILLGDRDSEISTVYLSLDIDENIIKEASENSLIITHHPLIFKGLKDLYDKTYPRAFIKEMIYKNISLISMHTNYDLSHLNTYFTEEILGFKISFKDKFLIYVENSMSFEALCDWVKKKLNLQILRVSDCGKKDIKRIAICTGSGGDLISKVDADCFLSGDFKYHQALEALSNQISLIDLGHFESERYFSQCLAKDLKNLPLQVIITVSKNPFQYFLEHHHHHH”, for which the “soluble on expression in E. coli” value is listed as “soluble”.
Consider “MKLSTSLEMPFRESTDPICSVCNFSSLIAPHFGGLVCSACASFFRRTVALNIHYLCKKDNQCKGMRKNCRACRFESCVKIAGMKRSLVKERKNLNNIPLYILNRRNETGNQGVVRAFVSSNQNRLENRLSLSPLTELPINDEMDVSKILKTTPSSLLKYYVEQVSHGKQFYMNTLNIRTKEELFEIVSYQSKVAAETCRTCPGVDLLDNRDILILRKYFQFSNIWIESTWKYWFSNDFSNDTEKFDIKLMEFIGQVKSTLLISLSRLKFNIFEFTAFKAICIWKLVYHETSRAMKIVAQEHYEGVTKALISYYQTYTLLDSMEIAIRVGEITLLVSSVFQMYHDMAKLYLHMGLPF”, for which the “soluble on expression in E. coli” value was “not soluble”.
With “MKLTDSVLRSFRVAKVFRENSDKINCFDFSSNGETVISSSDDDSIVLYDCQEGKPKRTLYSKKYGVDLIRYTHAANTVVYSSNKIDDTIRYLSLHDNKYIRYFPGHNKRVVALSMSPVDDTFISGSLDKTIRLWDLRSPNCQGLMHLQGKPVCSFDPEGLIFAAGVNSEMVKLYDLRSFDKGPFATFKLQYERTCEWTGLKFSNDGKLILVSTNGGTLRVLDAFKGAVLHSFGGYNNSKGVILEAPFTPDSQFIMIGSEDGKIHVWNAESGMKVALLDGKHTGPVTCLQFNPKFMTFASACSNMAFWLPTIDD”, the “soluble on expression in E. coli” value is reported as “not soluble”.
The same measure for “MKLTGQAIDGFLRKPDPKIRCVLVYGPDEGLVRERLEQLARTVVADPKDPFRITDLSGDDLRADPARLADEAAALAFGGGRRLVRLRQMTDQHAPRLKAFVEAPVGEALVLVQGGDLTARSALRKLFEGASAAAALPCYADEGRSLETLVRATLAEARLAAAPEVIDYLVANLGGDRGVSRSELAKLVTYCGKATSVSLDDALACVGDSAQIGLDMLTNAVAEGDSATALRALDRLGQEGMATVALLRGLTRHFTRLHLVAGLIAGGTSVDQALAALKPPVMFKLAPRFRSQVQRWSAERLAQALDLLLDAEIDAKSSGLPERALVERLLLRLARGAKTASRLEHHHHHH”: “not soluble”.
In the case of “MKLVICIVQDDDAGELIDVLTDKGLRVTKLATTGGFLKAGNTTLMIGVEEKAVDGVIETIEDVCKTRQQVVTSPSPVAGSTGVYVPYPIDVEVGGATIFVVDVDKFIKI”, the “soluble on expression in E. coli” value is given as “not soluble”.
The result for “MKMADAKQKRNEQLKRWIGSETDLEPPVVKRKKTKVKFDDGAVFLAACSSGDTEEVLRLLERGADINYANVDGLTALHQACIDDNVDMVKFLVENGANINQPDNEGWIPLHAAASCGYLDIAEYLISQGAHVGAVNSEGDTPLDIAEEEAMEELLQNEVNRQGVDIEAARKEEERIMLRDARQWLNSGHINDVRHAKSGGTALHVAAAKGYTEVLKLLIQARYDVNIKDYDGWTPLHAAAHWGKEEACRILVENLCDMEAVNKVGQTAFDVADEDILGYLEELQKKQNLLHSEKREKKS” reads “soluble”; that for “MKMMPSKLQKNKQRLRNDPLNQNKGKPDLNTTLPIRQTASIFKQPVTKVTNHPSNKVKSDPQRMNEQPRQLFWEKRLQGLSASDVTEQIIKTMELPKGLQGVGPGSNDETLLSAVASALHTSSAPITGQVSAAVEKNPAVWLNTSQPLCKAFIVTDEDIRKQEERVQQVRKKLEEALMADILSRAADTEEMDIEMDSGDEALEHHHHHH”, “soluble”.
For the sequence “MKMSELEKMLKGEHFDGASAEIEALRSQAGRLKLEINQSLDEAERYALQRELFGHLGHKSCVQPPFHCEFGKTIRIGDHTFINMNVVMLDGAPITIGDHVLIGPSTQFYTASHSLDYRRRQAWETICKPIVIEDDVWIGGNVVINQGVTIGARSVVAANSVVNQDVPPDTLVGGTPARILRSLKDPAESMAE”, the “soluble on expression in E. coli” value is reported as “not soluble”.
Consider “MKMSTKGRYGLRAMLDIAVNSKGDIVSVKSIAERQNISESYLEQVFSILRKAAIVKSIKGAQGGYVLADDPSNITVGKILRTLEGNLNVVDIDDRDSEVSKEEKCINEFVWNKINKSIDKVVDNITLGDLLREYQKLEDNSSVMYYI”, for which the “soluble on expression in E. coli” value is given as “soluble”.
With “MKNAFFVTASIACGKSTFIEIANSLGFKSISADKIAHKILDENALELEKIFSPFSLKNLLKKEKKIDRKILGEIVFNNKEAKKILENFTHPKIRAKILEQMQILDKENKAFFVEIPLFFESGAYENLGKVIVIYTPKELSLKRIMQRDKLSLEAAKARLDSQIDIEEKLKKADFIIKNTNSYADFRQECVKVIQEISKGNM”, the “soluble on expression in E. coli” value is recorded as “not soluble”.
In the case of “MKNLERLFAEKLLKIKAIKLQPANPFTWASGWKSPFYCDNRKTLSYPSLRNFVKIEITRLILERFGQVDAIAGVATGAIPQGALVADALNLPFVYVRSTPKDHGLENLIEGELRPGMKVVVVEDLISTGGSSLKAVEAIRRDGCEVIGMVAAYTYGFPVAEEAFKNAKVPLVTLTNYEAVLDVALRTGYIEEEDIATLNDWRKDPAHWDAGK”, the “soluble on expression in E. coli” value is “soluble”.
With “MKNLPISIGRIVMQGGHVNFQDQFIQPNYRAYLTDLAGRIGPLNPRKTGEVDIRGAVDKTAPLKISGSVDAFGRELNLDITASAKGIDMPTFSPYSGKYIGYAIEKGKLSVDVHYHVEHGELTAENSIFLDQLTFGEKIESPDAVSIPVNLALALLEHHHHHH”, the “soluble on expression in E. coli” value is listed as “not soluble”.
“MKNNLPIIALDFASAEETLAFLAPFQQEPLFVKVGMELFYQEGPSIVKQLKERNCELFLDLKLHDIPTTVNKAMKRLASLGVDLVNVHAAGGKKMMQAALEGLEEGTPAGKKRPSLIAVTQLTSTSEQIMKDELLIEKSLIDTVVHYSKQAEESGLDGVVCSVHEAKAIYQAVSPSFLTVTPGIRMSEDAANDQVRVATPAIAREKGSSAIVVGRSITKAEDPVKAYKAVRLEWEGIKS”: the “soluble on expression in E. coli” value is “soluble”.

(Values after the DeepSol protein solubility set.)
